{
  "source": "patent US20030186334A1",
  "about": "“KTS-disintegrins” (Temple University - Of the Commonwealth System of Higher …, priority 2001, published 2003)",
  "biological_target": "human α1β1 integrin (human), P56199",
  "sequence (P56199 29-1179, chain 1 of 2)": "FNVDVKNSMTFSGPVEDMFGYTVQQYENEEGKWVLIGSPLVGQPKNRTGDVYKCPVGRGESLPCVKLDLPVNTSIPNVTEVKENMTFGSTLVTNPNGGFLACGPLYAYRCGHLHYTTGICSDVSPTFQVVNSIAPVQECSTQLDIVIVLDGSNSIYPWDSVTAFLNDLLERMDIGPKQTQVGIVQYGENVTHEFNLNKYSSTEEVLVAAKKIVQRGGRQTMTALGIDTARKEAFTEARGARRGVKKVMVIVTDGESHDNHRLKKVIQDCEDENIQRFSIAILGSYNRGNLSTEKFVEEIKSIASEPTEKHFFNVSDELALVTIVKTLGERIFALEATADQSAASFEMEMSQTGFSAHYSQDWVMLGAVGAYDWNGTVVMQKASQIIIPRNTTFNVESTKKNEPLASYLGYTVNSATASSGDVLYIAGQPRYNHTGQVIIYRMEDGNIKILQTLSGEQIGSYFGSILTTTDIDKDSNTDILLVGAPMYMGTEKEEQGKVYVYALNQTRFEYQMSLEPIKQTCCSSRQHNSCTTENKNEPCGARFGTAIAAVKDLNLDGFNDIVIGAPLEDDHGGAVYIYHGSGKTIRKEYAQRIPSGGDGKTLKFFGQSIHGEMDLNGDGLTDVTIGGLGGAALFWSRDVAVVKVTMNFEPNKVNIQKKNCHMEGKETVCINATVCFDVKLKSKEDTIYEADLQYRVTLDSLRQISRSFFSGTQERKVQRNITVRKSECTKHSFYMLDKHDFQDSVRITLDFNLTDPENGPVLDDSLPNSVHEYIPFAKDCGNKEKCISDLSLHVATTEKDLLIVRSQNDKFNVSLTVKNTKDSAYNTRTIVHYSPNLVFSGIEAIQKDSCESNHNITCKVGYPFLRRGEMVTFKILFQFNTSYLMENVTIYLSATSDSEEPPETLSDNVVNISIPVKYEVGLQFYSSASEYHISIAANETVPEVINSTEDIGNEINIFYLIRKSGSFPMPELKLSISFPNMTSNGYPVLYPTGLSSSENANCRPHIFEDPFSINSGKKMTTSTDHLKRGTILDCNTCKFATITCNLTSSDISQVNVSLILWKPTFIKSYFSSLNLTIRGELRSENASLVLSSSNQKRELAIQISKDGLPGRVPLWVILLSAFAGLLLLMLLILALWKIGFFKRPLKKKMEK",
  "sequence (P05556 21-798, chain 2 of 2, further chain)": "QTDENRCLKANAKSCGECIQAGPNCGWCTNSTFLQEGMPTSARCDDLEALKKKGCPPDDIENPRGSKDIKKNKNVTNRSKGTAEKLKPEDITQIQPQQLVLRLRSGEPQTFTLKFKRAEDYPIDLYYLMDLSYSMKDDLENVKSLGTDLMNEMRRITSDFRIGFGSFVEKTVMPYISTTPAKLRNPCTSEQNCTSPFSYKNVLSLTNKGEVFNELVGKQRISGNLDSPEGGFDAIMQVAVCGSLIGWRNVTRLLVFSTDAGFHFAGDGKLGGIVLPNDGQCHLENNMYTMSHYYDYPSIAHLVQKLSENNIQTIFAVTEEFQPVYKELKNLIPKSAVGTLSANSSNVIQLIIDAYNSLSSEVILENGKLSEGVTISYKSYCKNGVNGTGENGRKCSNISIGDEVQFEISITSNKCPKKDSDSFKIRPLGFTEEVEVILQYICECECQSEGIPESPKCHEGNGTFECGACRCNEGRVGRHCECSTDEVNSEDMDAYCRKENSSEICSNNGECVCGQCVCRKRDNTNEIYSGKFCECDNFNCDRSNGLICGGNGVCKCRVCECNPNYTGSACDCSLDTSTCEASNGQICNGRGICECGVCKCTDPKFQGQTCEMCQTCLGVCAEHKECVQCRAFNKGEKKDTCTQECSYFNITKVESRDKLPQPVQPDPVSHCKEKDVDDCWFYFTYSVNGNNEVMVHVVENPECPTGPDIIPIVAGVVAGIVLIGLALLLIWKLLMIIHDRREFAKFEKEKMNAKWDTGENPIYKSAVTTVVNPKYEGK",
  "test": "inhibition of adhesion of α1K562 cells to immobilised collagen IV",
  "data": [
    {"binder": "TSLTS (modifications not checked)", "note": "[synthetic peptide TSLTS (SEQ ID NO: 6)]", "values": [
      {"measurement": "IC50", "result": 3.5, "unit": "mM"}
    ]}
  ]
}
